± gives the uncertainty stated by the source.
B1: FERM and PDZ domain-containing protein 4, residues 75 to 154; numbered along this chain, Q14CM0 (parent)
chain: APRKVEMRRDPVLGFGFVAGSEKPVVVRSVTPGGPSEGKLIPGDQIVMINDEPVSAAPRERVIDLVRSCKESILLTVIQP

Variants of: B1
Experiment: abundance fitness (aPCA) (normalised: wild type 0, dead -1); higher = more abundant; growth selection in yeast, the domain comes from the species named
Settings: Homo sapiens

Variant	abundance fitness
I41A	0.005 ± 0.023
I41C	-0.014 ± 0.031
I41D	-0.063 ± 0.036
I41E	0.015 ± 0.025
I41F	0.043 ± 0.036
I41G	-0.084 ± 0.022
I41H	0.028 ± 0.036
I41K	-0.008 ± 0.028
I41L	0.024 ± 0.023
I41M	0.03 ± 0.027
I41N	0.032 ± 0.039
I41P	-0.925 ± 0.055
I41Q	-0.003 ± 0.028
I41S	0.033 ± 0.024
I41T	0.013 ± 0.028
I41V	-0.009 ± 0.024
I41W	-0.004 ± 0.025
I41Y	-0.011 ± 0.035
P42A	-0.036 ± 0.024
P42D	-0.064 ± 0.035
P42E	-0.024 ± 0.025
P42G	-0.237 ± 0.022
P42H	-0.155 ± 0.045
P42I	-0.082 ± 0.038

Variant	abundance fitness
P42K	-0.108 ± 0.03
P42L	-0.104 ± 0.024
P42M	-0.154 ± 0.031
P42N	-0.069 ± 0.043
P42Q	-0.043 ± 0.029
P42R	-0.124 ± 0.021
P42S	-0.093 ± 0.026
P42T	-0.058 ± 0.028
P42V	-0.048 ± 0.022
P42W	-0.477 ± 0.03
P42Y	-0.276 ± 0.041
G43C	-0.252 ± 0.034
G43D	-0.108 ± 0.035
G43E	-0.18 ± 0.027
G43F	-0.256 ± 0.038
G43H	-0.204 ± 0.043
G43I	-1.03 ± 0.14
G43L	-0.284 ± 0.024
G43M	-0.175 ± 0.028
G43N	-0.131 ± 0.041
G43P	-0.958 ± 0.051
G43Q	-0.227 ± 0.03
G43R	-0.248 ± 0.021
G43S	-0.262 ± 0.025

Variant	abundance fitness
G43T	-0.424 ± 0.031
G43V	-0.991 ± 0.04
G43W	-0.402 ± 0.026
G43Y	-0.246 ± 0.044
D44A	-0.221 ± 0.023
D44C	-0.289 ± 0.033
D44E	-0.173 ± 0.025
D44F	-0.957 ± 0.093
D44G	-0.73 ± 0.026
D44H	-0.306 ± 0.079
D44K	-1.01 ± 0.069
D44M	-0.186 ± 0.029
D44N	-0.418 ± 0.041
D44P	-0.937 ± 0.058
D44Q	-0.369 ± 0.033
D44R	-1.01 ± 0.037
D44S	-0.264 ± 0.024
D44W	-0.817 ± 0.037
D44Y	-0.697 ± 0.052
Q45A	-0.084 ± 0.026
Q45C	-0.101 ± 0.03
Q45D	-0.589 ± 0.041
Q45E	-0.037 ± 0.031
Q45F	-0.247 ± 0.03

Variant	abundance fitness
Q45H	-0.009 ± 0.029
Q45I	-0.105 ± 0.027
Q45K	-0.057 ± 0.028
Q45L	-0.136 ± 0.021
Q45N	-0.126 ± 0.027
Q45P	-0.938 ± 0.051
Q45R	-0.026 ± 0.022
Q45S	-0.102 ± 0.022
Q45T	-0.105 ± 0.023
Q45V	-0.123 ± 0.024
Q45W	-0.2 ± 0.03
I46F	-0.255 ± 0.21
I46L	-0.051 ± 0.2
I46M	-0.293 ± 0.16
I46N	-0.679 ± 0.31
I46P	-0.611 ± 0.37
I46S	0.073 ± 0.36
I46T	-0.113 ± 0.17
I46V	-0.014 ± 0.098
V47A	-0.112 ± 0.036
V47C	-0.032 ± 0.04
V47D	-0.084 ± 0.048
V47E	-0.083 ± 0.059
V47F	-0.118 ± 0.042

Variant	abundance fitness
V47G	-0.426 ± 0.041
V47H	-0.06 ± 0.043
V47I	0.018 ± 0.032
V47K	-0.114 ± 0.042
V47L	0.012 ± 0.027
V47M	-0.03 ± 0.049
V47N	-0.175 ± 0.042
V47Q	-0.045 ± 0.04
V47R	-0.192 ± 0.033
V47S	-0.098 ± 0.03
V47T	-0.01 ± 0.032
V47W	-0.128 ± 0.046
V47Y	-0.019 ± 0.04
M48A	0.044 ± 0.026
M48C	-0.003 ± 0.028
M48D	-0.095 ± 0.039
M48E	-0.028 ± 0.037
M48F	-0.01 ± 0.027
M48G	-0.025 ± 0.026
M48H	-0.121 ± 0.031
M48I	-0.154 ± 0.03
M48K	-0.046 ± 0.03
M48L	-0.072 ± 0.022
M48N	-0.095 ± 0.032

Variant	abundance fitness
M48P	-0.917 ± 0.05
M48R	-0.046 ± 0.023
M48S	0.008 ± 0.022
M48T	-0.015 ± 0.025
M48V	-0.127 ± 0.027
M48W	-0.152 ± 0.032
M48Y	-0.083 ± 0.031
I49A	-0.581 ± 0.03
I49C	-0.267 ± 0.031
I49D	-0.846 ± 0.07
I49E	-0.894 ± 0.048
I49F	-0.476 ± 0.042
I49G	-0.887 ± 0.034
I49H	-0.676 ± 0.069
I49L	-0.111 ± 0.023
I49M	-0.529 ± 0.034
I49N	-0.847 ± 0.083
I49P	-0.928 ± 0.056
I49Q	-0.941 ± 0.059
I49R	-0.868 ± 0.031
I49S	-0.929 ± 0.042
I49T	-0.708 ± 0.042
I49V	0.006 ± 0.023
I49W	-0.779 ± 0.036

Variant	abundance fitness
I49Y	-0.855 ± 0.076
N50A	-0.143 ± 0.023
N50C	-0.2 ± 0.035
N50D	-0.035 ± 0.032
N50E	-0.054 ± 0.026
N50F	-0.145 ± 0.037
N50G	0 ± 0.02
N50H	-0.11 ± 0.038
N50I	-0.607 ± 0.066
N50K	-0.223 ± 0.032
N50L	-0.361 ± 0.023
N50M	-0.187 ± 0.028
N50P	-0.919 ± 0.05
N50Q	-0.094 ± 0.028
N50S	-0.185 ± 0.024
N50T	-0.597 ± 0.034
N50V	-0.695 ± 0.029
N50W	-0.173 ± 0.025
N50Y	-0.162 ± 0.044
D51A	-0.087 ± 0.024
D51C	-0.135 ± 0.034
D51E	-0.016 ± 0.028
D51F	-0.194 ± 0.044
D51H	0.01 ± 0.043

Variant	abundance fitness
D51I	-0.511 ± 0.057
D51K	-0.044 ± 0.035
D51L	-0.168 ± 0.024
D51M	-0.077 ± 0.03
D51N	-0.047 ± 0.035
D51P	-0.821 ± 0.051
D51Q	-0.027 ± 0.028
D51R	-0.069 ± 0.021
D51S	-0.039 ± 0.024
D51T	-0.079 ± 0.028
D51V	-0.385 ± 0.025
D51W	-0.234 ± 0.026
D51Y	-0.145 ± 0.044
E52C	-0.069 ± 0.03
E52D	-0.071 ± 0.032
E52F	-0.083 ± 0.035
E52G	-0.321 ± 0.02
E52H	-0.037 ± 0.038
E52I	-0.053 ± 0.04
E52K	-0.066 ± 0.031
E52L	-0.026 ± 0.022
E52M	-0.038 ± 0.028
E52N	-0.048 ± 0.039
E52P	-0.861 ± 0.058

Variant	abundance fitness
E52Q	-0.012 ± 0.028
E52R	-0.053 ± 0.02
E52S	-0.102 ± 0.024
E52T	-0.037 ± 0.028
E52W	-0.065 ± 0.023
E52Y	-0.045 ± 0.036
P53A	-0.037 ± 0.028
P53C	-0.029 ± 0.031
P53D	0.034 ± 0.037
P53E	0.007 ± 0.036
P53F	-0.124 ± 0.031
P53G	-0.079 ± 0.029
P53H	-0.03 ± 0.028
P53I	0.116 ± 0.029
P53K	-0.003 ± 0.03
P53L	0.004 ± 0.024
P53M	-0.015 ± 0.031
P53N	-0.005 ± 0.03
P53Q	-0.035 ± 0.034
P53R	-0.038 ± 0.025
P53S	-0.002 ± 0.024
P53T	-0.043 ± 0.026
P53V	-0.012 ± 0.028
P53W	-0.094 ± 0.032

Variant	abundance fitness
P53Y	-0.078 ± 0.028
V54A	-0.271 ± 0.031
V54C	-0.03 ± 0.034
V54D	-0.928 ± 0.079
V54E	-0.771 ± 0.073
V54F	-0.692 ± 0.044
V54G	-0.993 ± 0.066
V54H	-0.942 ± 0.066
V54I	-0.117 ± 0.03
V54K	-1.21 ± 0.11
V54L	-0.207 ± 0.025
V54N	-0.945 ± 0.072
V54P	-0.994 ± 0.06
V54Q	-0.647 ± 0.044
V54S	-0.627 ± 0.031
V54T	-0.13 ± 0.028
V54W	-1.07 ± 0.11
V54Y	-0.911 ± 0.058
S55F	-0.143 ± 0.055
S55P	-0.027 ± 0.19
S55T	-0.157 ± 0.25
A57C	-0.005 ± 0.03
A57D	-0.052 ± 0.034
A57E	-0.022 ± 0.028

Variant	abundance fitness
A57F	0.016 ± 0.038
A57G	-0.233 ± 0.021
A57H	-0.083 ± 0.039
A57I	-0.055 ± 0.035
A57K	-0.055 ± 0.032
A57L	0.032 ± 0.023
A57M	0.009 ± 0.028
A57N	-0.149 ± 0.038
A57P	-0.816 ± 0.045
A57Q	-0.028 ± 0.03
A57R	-0.12 ± 0.021
A57S	-0.009 ± 0.024
A57T	0 ± 0.028
A57W	0.016 ± 0.024
A57Y	0.038 ± 0.037
P58A	-0.067 ± 0.023
P58C	-0.043 ± 0.029
P58D	-0.061 ± 0.032
P58E	-0.06 ± 0.026
P58F	-0.33 ± 0.039
P58G	-0.014 ± 0.02
P58H	-0.09 ± 0.035
P58I	-0.29 ± 0.04
P58K	-0.027 ± 0.032

Variant	abundance fitness
P58L	-0.24 ± 0.024
P58M	-0.217 ± 0.03
P58N	-0.04 ± 0.037
P58Q	-0.091 ± 0.029
P58R	-0.063 ± 0.02
P58S	0.017 ± 0.025
P58T	-0.029 ± 0.027
P58V	-0.167 ± 0.023
P58W	-0.474 ± 0.029
P58Y	-0.25 ± 0.043
R59A	-0.028 ± 0.023
R59C	-0.03 ± 0.031
R59D	-0.385 ± 0.036
R59E	-0.05 ± 0.027
R59F	0.005 ± 0.035
R59G	-0.007 ± 0.02
R59H	-0.059 ± 0.035
R59L	0.007 ± 0.022
R59M	-0.039 ± 0.028
R59N	-0.025 ± 0.038
R59P	-0.025 ± 0.026
R59Q	0.022 ± 0.028
R59S	-0.06 ± 0.023
R59T	-0.03 ± 0.026

Variant	abundance fitness
R59V	-0.051 ± 0.022
R59W	-0.025 ± 0.024
R59Y	0.025 ± 0.035
E60C	-0.059 ± 0.028
E60D	-0.049 ± 0.032
E60F	-0.183 ± 0.035
E60G	-0.025 ± 0.019
E60H	-0.038 ± 0.037
E60I	-0.21 ± 0.04
E60K	-0.015 ± 0.029
E60L	-0.137 ± 0.022
E60M	-0.048 ± 0.03
E60N	-0.028 ± 0.038
E60P	-0.077 ± 0.029
E60R	-0.041 ± 0.02
E60S	-0.005 ± 0.024
E60T	-0.03 ± 0.026
E60V	-0.131 ± 0.022
E60W	-0.112 ± 0.024
E60Y	-0.178 ± 0.036
R61A	-0.018 ± 0.029
R61C	-0.065 ± 0.032
R61D	-0.021 ± 0.035
R61E	-0.071 ± 0.035

Variant	abundance fitness
R61F	-0.044 ± 0.034
R61G	-0.134 ± 0.029
R61H	-0.012 ± 0.031
R61I	-0.107 ± 0.033
R61K	-0.01 ± 0.032
R61M	-0.059 ± 0.032
R61N	-0.041 ± 0.032
R61P	-0.505 ± 0.04
R61Q	-0.005 ± 0.032
R61S	-0.029 ± 0.024
R61T	-0.037 ± 0.03
R61V	-0.044 ± 0.026
R61W	-0.082 ± 0.032
R61Y	-0.019 ± 0.03
V62A	-0.32 ± 0.029
V62D	-0.793 ± 0.053
V62E	-0.86 ± 0.057
V62F	-0.17 ± 0.027
V62G	-0.936 ± 0.046
V62H	-0.711 ± 0.039
V62K	-1.03 ± 0.065
V62L	-0.199 ± 0.022
